Laboratory results: patent publication US20240092892A1 (BIO THERA SOLUTIONS, published 2024)
Substitutions are numbered along the chain they refer to. Names may count otherwise. Blank lines part the entries; values can stand above or below the binder they belong to.

Tests used:
human CLDN18.2 = human CLDN18.2 (human); test: cell-based or functional assay
human CLDN18.1 = molecular target: T1, human CLDN18.1 (human, UniProt P56856 1-261); test: flow cytometry on CHO-CLDN18.1 cells
T1 construct: also called CHO-CLDN18.1 cells
T1 sequence (P56856 whole entry): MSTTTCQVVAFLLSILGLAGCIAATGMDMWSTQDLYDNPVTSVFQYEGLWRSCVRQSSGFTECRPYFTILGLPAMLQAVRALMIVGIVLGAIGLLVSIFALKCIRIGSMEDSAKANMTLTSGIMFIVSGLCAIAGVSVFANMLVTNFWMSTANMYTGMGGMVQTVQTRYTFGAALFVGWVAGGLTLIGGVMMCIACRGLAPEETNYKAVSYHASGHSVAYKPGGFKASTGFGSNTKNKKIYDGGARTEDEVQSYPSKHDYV
Method: Flow cytometry was used to detect the binding capacity of anti-CLDN18.2 antibodies to cells expressing CLDN18.2, and the specificity of not binding to CLDN18.1 of the antibody was further detected. The experimental procedure overview was as follows: CLDN18.2 positive cells (KATOIII or CHO-CLDN18.2) and negative cells (CHO-CLDN18.1) were collected, washed once with PBS, resuspended in PBS, and plated on a 96-well V-bottom plate (Cat. No. 3897, Costar) at 0.1 million cells/50 μL/well. The antibody was pre-diluted to 333.2 nM with PBS, then diluted 2-fold with 9 gradients, added at 50 μL/well to the cells in the 96-well V-bottom plate described above, and mixed well (final antibody concentrations: 166.6, 83.3, 41.6, 20.8, 10.4, 5.2, 2.6, 1.3, 0.65, and 0.325 nM). The mixture was incubated at 4° C. for 1 h and washed twice with PBS. Then 100 μL of 1:500 diluted goat anti-human IgG-Fc PE fluorescent secondary antibody (Cat. No. 12-4998-82, eBioscience) was added. The mixture was incubated at 4° C. for 1 h, washed twice with PBS, and analyzed with a CytoFLEX flow cytometer (model: AOO-1-1102, Beckman). [0192]

- ADCC Reporter Bioassay (Jurkat-NFAT-luc-FcγRIIIa effector cells, luciferase) EC50 (human CLDN18.2): 0.795 nM
B1: IMAB362 (antibody, V domains shown)
VH: QVQLQQPGAELVRPGASVKLSCKASGYTFTSYWINWVKQRPGQGLEWIGNIYPSDSYTNYNQKFKDKATLTVDKSSSTAYMQLSSPTSEDSAVYYCTRSWRGNSFDYWGQGTTLTVSS
VL: DIVMTQSPSSLTVTAGEKVTMSCKSSQSLLNSGNQKNYLTWYQQKPGQPPKLLIYWASTRESGVPDRFTGSGSGTDFTLTISSVQAEDLAVYYCQNDYSYPFTFGSGTKLEIKR
- CDC cell killing rate (CCK-8, 5% human serum complement) IC50 (human CLDN18.2): 5.87 nM

- binding result (human CLDN18.1): no binding
B2: H239H-2a-K-6a (antibody, human IgG1, kappa, V domains shown)
VH: EVQLLESGGGLVQPGGSLRLSCAASGFTFSDYGMHWVRQAPGKGLEWVAYISRGRSTTYSTDTVKGRFTISRDSSKNTLYLQMNSLRAEDTAVYYCARGSYYGNAMDYWGQGTLVTVSS
VL: DIVMTQSPDSLAVSLGERATINCKSSQSLLNSGNQRNYLTWYQQKPGQPPKLLIYWASTRESGVPDRFSGSGSGTDFTLTISSLQAEDVAVYYCQSAYSYPFTFGGGTKLEIKR
notes: Humanized antibody derived from CH239H-2-K-6, human IgG1/kappa constant regions; also called H239H-2a-K-6α

- ADCC Reporter Bioassay (Jurkat-NFAT-luc-FcγRIIIa effector cells, luciferase) EC50 (human CLDN18.2): 0.0625 nM
- binding result (human CLDN18.1): no binding
B3: H239H-2b-K-6a (antibody, human IgG1, kappa, V domains shown)
VH: B2 VH with S74N
VL: B2 VL
notes: Humanized antibody derived from CH239H-2-K-6, human IgG1/kappa constant regions; also called H239H-2b-K-6α
- CDC cell killing rate (CCK-8, 5% human serum complement) IC50 (human CLDN18.2): 0.291 nM
